Biological target: biotin-VEGF-A (8-109) (human)
Assay: SPR; […]; Biacore S200, […] (PBS with 0.05% Tween 20, pH 7.4); […]

Sequence of biotin-VEGF-A (8-109) (human) (P15692 whole entry): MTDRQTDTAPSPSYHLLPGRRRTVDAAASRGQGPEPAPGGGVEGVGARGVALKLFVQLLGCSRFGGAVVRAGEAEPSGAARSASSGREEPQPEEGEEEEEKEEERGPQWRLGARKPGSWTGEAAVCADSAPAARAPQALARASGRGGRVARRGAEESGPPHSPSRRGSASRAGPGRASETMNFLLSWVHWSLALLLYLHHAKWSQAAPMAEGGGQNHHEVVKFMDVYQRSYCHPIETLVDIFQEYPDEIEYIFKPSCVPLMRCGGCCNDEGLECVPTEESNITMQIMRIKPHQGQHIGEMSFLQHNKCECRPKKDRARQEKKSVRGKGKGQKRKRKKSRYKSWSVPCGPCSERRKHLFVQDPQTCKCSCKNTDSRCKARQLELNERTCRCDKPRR

Binder	Kd [µM]
GCAGKSCKKWSSVHCDAGCFCQIGQQVVYIPGCV (designed binder) [V-MCH-1]	> 50
VGECSQPWFINMCNMVDCCSQFGYCGKGPKYCG (designed binder) [V-AMP-1]	> 3.6
GCTTPWVPHHIMCKQDSDCLAGCVCGPNGFCG (designed binder) [V-EET-1]	> 20
GCQTPWFPHQILCKQDSDCLAGCVCGPNGFCG (designed binder) [V-EET-2]	> 30
GCMTPWFPFTINCKQDSDCLAGCVCGPNGFCG (designed binder) [V-EET-3]	> 1.5

Biological target: T1, biotin-PDGF-bb (human), P01127
T1 chain: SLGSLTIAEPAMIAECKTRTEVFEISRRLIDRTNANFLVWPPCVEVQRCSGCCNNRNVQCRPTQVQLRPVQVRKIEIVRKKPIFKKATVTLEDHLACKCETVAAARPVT
Assay: as above

Binder	Kd [µM]
GCSHWLQEMFGFCKQDSDCLAGCVCEISETCG (designed binder, modifications not checked) [P-EET-2]	> 20
GCFDDNPFIACKQDSDCLAGCVCWYDTWCG (designed binder, modifications not checked) [P-EET-6]	> 6.7

From PMC10977726
